This note sets out measurements from publication PMC3089910 (Analytical biochemistry, 2010).

Data set [1] has as its target human lactoferrin (hLF), iron-free, in the presence of Zn2+ (human). As to the kind of experiment: AUC.
Data set [2] concerns the molecule itself. The experiment in a line: AUC.

B1: rTp34, Tp34 from Treponema pallidum, in the presence of Zn2+ (natural protein)
chain: CGGGGEHQHGEEMMAAVPAPDAEGAAGFDEFPIGEDRDVGPLHVGGVYFQPVEMHPAPGAQPSKEEADCHIEADIHANEAGKDLGYGVGDFVPYLRVVAFLQKHGSEKVQKVMFAPMNAGDGPHYGANVKFEEGLGTYKVRFEIAAPSHDEYSLHIDEQTGVSGRFWSEPLVAEWDDFEWKGPQW
For the molecule B1, the stoichiometry N in data set [1] and in data set [2] was 2 throughout.

By stoichiometry N is commonly meant a count of units in the complex or per binding partner.
